Data: patent US20110044995A1 (KUMAMOTO UNIVERSITY, published 2011)
“And” between values parts separate entries of the source, which are not always exact repeats. Equal values may be shown once.

T1: V3 peptide NNT20 (HIV-1 strain JR-FL)
T1 construct: Coated on the plate at 5 µg/ml
T1 peptide: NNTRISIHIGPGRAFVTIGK

T2: envelope of HIV-2 strain ROD (HIV-2 strain ROD, UniProt P04577 20-858)
T2 sequence: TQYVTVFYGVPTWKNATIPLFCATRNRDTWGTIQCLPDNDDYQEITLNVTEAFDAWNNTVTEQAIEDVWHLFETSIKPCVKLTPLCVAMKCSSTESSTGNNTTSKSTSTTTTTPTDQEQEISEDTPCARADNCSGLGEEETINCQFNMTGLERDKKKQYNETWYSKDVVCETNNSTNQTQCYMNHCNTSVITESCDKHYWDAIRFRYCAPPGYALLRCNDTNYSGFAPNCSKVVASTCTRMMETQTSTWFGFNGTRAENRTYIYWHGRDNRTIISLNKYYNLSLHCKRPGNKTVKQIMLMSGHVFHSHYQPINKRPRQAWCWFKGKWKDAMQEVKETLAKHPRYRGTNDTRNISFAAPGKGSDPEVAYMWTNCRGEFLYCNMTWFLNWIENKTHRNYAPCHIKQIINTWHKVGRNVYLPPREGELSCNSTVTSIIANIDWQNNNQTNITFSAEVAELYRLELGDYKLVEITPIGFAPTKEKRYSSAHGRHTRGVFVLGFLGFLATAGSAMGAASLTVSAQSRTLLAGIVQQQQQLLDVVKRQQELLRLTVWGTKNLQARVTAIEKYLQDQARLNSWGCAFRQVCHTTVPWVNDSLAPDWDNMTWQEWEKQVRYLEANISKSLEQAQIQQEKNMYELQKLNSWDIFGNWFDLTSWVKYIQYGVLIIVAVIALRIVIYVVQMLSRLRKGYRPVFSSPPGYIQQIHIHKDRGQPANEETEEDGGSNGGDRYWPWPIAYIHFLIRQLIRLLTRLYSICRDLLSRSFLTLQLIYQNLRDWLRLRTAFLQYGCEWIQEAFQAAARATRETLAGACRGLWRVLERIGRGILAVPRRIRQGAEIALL

B1: 0.5 γ(1C10) (antibody, IgG1, V domains shown)
VH: EVQLVESGGGLIQPGGSLRLSCAASGFTVSSSSMSWVRQAPEKGLEWVSVVYSGGNTYNADSVKGRFSISRDNSKNTVYLQMNSLRADDTAVYYCARDLGGGDRSSDYWGQGTLVTVSS
VL: DIQLTQSPSSLSASVGDRVTITCRASESINTYLNWYQQRPGKAPKLLIYAASTLQTGVPSRFSGSGSGTLFTLTISSLQPEDLATYYCQQSFSTLPYTLGRGTKVEIKG
notes: Human monoclonal from EBV-immortalised B cells of a long-term nonprogressor; also called 0.5γ(IC10); 1C10(0.5 γ)
B2: 5G2 (antibody, IgG1, V domains shown)
VH: EVQLVESGGGVVRPGNSLRLSCAASGIIFSTANLHWLRHVPGKGLEWVAIISYDGHRQYYADLVKGRFTISRDNSKNTLHLQMDGLTSDDTAVYYCAKDGADENNLGPAFDYWGRGTLVTVSS
VL: EIVLTQSPATLSVSPGEGATLSCRASQSISSNLAWYQQKPGQAPRLLIYGASTGATGIPARFSGSGSGTDFTLTISRLEPEDFAIYYCQQYGSLPITFGQGTRLEIKR
B3: 0.5 δ(3D6) (antibody, IgG1, V domains shown)
VH: EVQLVESAAEVKKPGASVKVSCKASGYTFTSYGISWVRQAPGQGLQWMGWISAYNGNTKFAQEFKGRVTMTTDTSATTAYMELRSLRSDDTAVYYCARRNYYDSGSYYIRDGDYSMDVWGQGTLVTVSS
VL: not shown
notes: also called 3D6(0.5 δ); 0.5 d(3D6)

Tests used:
V3 peptide NNT20 = biological target: T1, V3 peptide NNT20; assay: V3-peptide ELISA, NNT20 coated at 5 µg/ml
[1] = biological target: envelope of HIV-1 strain JRFLGPER; assay: cell-based or functional assay; parameters: unit not given beside the values
[2] = biological target: envelope of HIV-1 clinically isolated strain MTA; assay: cell-based or functional assay; parameters: unit not given beside the values
[3] = biological target: envelope of HIV-2 strain EHO (HIV-2 strain EHO); assay: cell-based or functional assay; parameters: unit not given beside the values
[4] = biological target: envelope of HIV-1 clinically isolated strain YIS; assay: cell-based or functional assay; parameters: unit not given beside the values
[5] = biological target: envelope of HIV-1 clinically isolated strain MOKW; assay: cell-based or functional assay; parameters: unit not given beside the values
[6] = biological target: envelope of HIV-1 strain YU2 (HIV-1 strain YU2, UniProt P35961 32-843); assay: cell-based or functional assay; parameters: unit not given beside the values
[7] = biological target: envelope of HIV-1 clinically isolated strain YKI; assay: cell-based or functional assay; parameters: unit not given beside the values
[8] = biological target: envelope of HIV-1 strain SF162 (HIV-1 strain SF162, UniProt P19550 32-847); assay: cell-based or functional assay; parameters: unit not given beside the values
[9] = biological target: envelope of HIV-1 strain JR-FL (JRFLwt), on virus (HIV-1 strain JR-FL); assay: cell-based or functional assay; parameters: unit not given beside the values
[10] = biological target: envelope of HIV-1 clinically isolated strain KMT; assay: cell-based or functional assay; parameters: unit not given beside the values
[11] = biological target: envelope of HIV-1 strain IIIB (HIV-1 strain IIIB); assay: cell-based or functional assay; parameters: unit not given beside the values
[12] = biological target: envelope of HIV-1 clinically isolated strain TR43; assay: cell-based or functional assay; parameters: unit not given beside the values
[13] = biological target: envelope of HIV-1 strain BaL (HIV-1 strain BaL); assay: cell-based or functional assay; parameters: unit not given beside the values
[14] = biological target: envelope of HIV-1 clinically isolated strain kKGO; assay: cell-based or functional assay; parameters: unit not given beside the values
[15] = biological target: envelope of HIV-1 strain 89.6 (HIV-1 strain 89.6, UniProt Q73372 32-853); assay: cell-based or functional assay; parameters: unit not given beside the values
[16] = biological target: T2, envelope of HIV-2 strain ROD; assay: cell-based or functional assay; parameters: unit not given beside the values
[17] = biological target: envelope of HIV-1 clinically isolated strain MIS; assay: cell-based or functional assay; parameters: unit not given beside the values
[18] = biological target: T3, monomeric gp120 (gp120-SF2; Austral Biologicals) (HIV-1 strain SF2, UniProt P03378 32-509); assay: gp120-capture ELISA, B cell culture supernatant
T3 construct: domain: gp120; also called gp120 monomer

[19] = biological target: envelope of standard panel pseudotyped virus SVPB11 (HIV-1 subtype B); assay: cell-based or functional assay
[20] = biological target: envelope of standard panel pseudotyped virus SVPB17 (HIV-1 subtype B); assay: cell-based or functional assay
[21] = biological target: envelope of standard panel pseudotyped virus SVPB13 (HIV-1 subtype B); assay: cell-based or functional assay
[22] = biological target: envelope of standard panel pseudotyped virus SVPB15 (HIV-1 subtype B); assay: cell-based or functional assay
[23] = biological target: envelope of standard panel pseudotyped virus SVPB14 (HIV-1 subtype B); assay: cell-based or functional assay
[24] = biological target: envelope of standard panel pseudotyped virus SVPB6 (HIV-1 subtype B); assay: cell-based or functional assay
[25] = biological target: envelope of standard panel pseudotyped virus SVPB16 (HIV-1 subtype B); assay: cell-based or functional assay
[26] = biological target: envelope of standard panel pseudotyped virus SVPB12 (HIV-1 subtype B); assay: cell-based or functional assay
[27] = biological target: envelope of standard panel pseudotyped virus SVPB18 (HIV-1 subtype B); assay: cell-based or functional assay
[28] = biological target: envelope of standard panel pseudotyped virus SVPB5 (HIV-1 subtype B); assay: cell-based or functional assay
[29] = biological target: envelope of standard panel pseudotyped virus SVPB8 (HIV-1 subtype B); assay: cell-based or functional assay
[30] = biological target: T3, monomeric gp120 (gp120-SF2; Austral …); assay: gp120-capture ELISA with or without 0.5 µg/ml sCD4

| Binder | IC50, neutralizing activity (MTT assay) [1] | IC50, neutralizing activity (MTT assay) [2] | IC50, neutralizing activity (MTT assay) [3] | IC50, neutralizing activity (MTT assay) [4] | IC50, neutralizing activity (MTT assay) [5] | IC50, neutralizing activity (MTT assay) [6] | IC50, neutralizing activity (MTT assay) [7] | IC50, neutralizing activity (MTT assay) [8] | IC50, neutralizing activity (MTT assay) [9] | IC50, neutralizing activity (MTT assay) [10] | IC50, neutralizing activity (MTT assay) [11] | IC50, neutralizing activity (MTT assay) [12] | IC50, neutralizing activity (MTT assay) [13] | IC50, neutralizing activity (MTT assay) [14] | IC50, neutralizing activity (MTT assay) [15] | IC50, neutralizing activity (MTT assay) [16] | IC50, neutralizing activity (MTT assay) [17] | IC50 in TZM-bl cells [19] [µg/mL] | IC50 in TZM-bl cells [20] [µg/mL] | IC50 in TZM-bl cells [21] | further results |
| --- | --- | --- | --- | --- | --- | --- | --- | --- | --- | --- | --- | --- | --- | --- | --- | --- | --- | --- | --- | --- | --- |
| B1 | 26 | 0.53 | > 50 | 0.59 | 0.02 | 14 | 0.01 | 0.053 | 2.9 | 24 | > 50 | > 50 | 0.25 | 0.32 | 0.12 | > 50 | > 50 | 35 | 4.5 | > 50 µg/mL and 110 µg/mL | binding result (V3 peptide NNT20): binds; binding result [18]: binds; IC50 in TZM-bl cells [22]: > 150 µg/mL; IC50 in TZM-bl cells [23]: 10.5 µg/mL; IC50 in TZM-bl cells [24]: 38 µg/mL; IC50 in TZM-bl cells [25]: 6.1 µg/mL; IC50 in TZM-bl cells [26]: > 50 µg/mL and 82 µg/mL; IC50 in TZM-bl cells [27]: 1.1 µg/mL; IC50 in TZM-bl cells [28]: 0.23 µg/mL; IC50 in TZM-bl cells [29]: > 150 µg/mL |
| B2 | > 50 | 0.009 | > 50 | > 50 | 0.012 | > 50 | 1 | 0.91 | 37 | > 50 | > 50 | > 50 | 5.8 | > 50 | 14 | > 50 | > 50 | > 50 | 50 | > 50 µg/mL | binding result (V3 peptide NNT20): binds; IC50 in TZM-bl cells [22]: > 50 µg/mL; IC50 in TZM-bl cells [23]: > 50 µg/mL; IC50 in TZM-bl cells [24]: > 50 µg/mL; IC50 in TZM-bl cells [25]: > 50 µg/mL; IC50 in TZM-bl cells [26]: > 50 µg/mL; IC50 in TZM-bl cells [27]: 11.5 µg/mL; IC50 in TZM-bl cells [28]: 10.1 µg/mL; IC50 in TZM-bl cells [29]: > 50 µg/mL; binding result [30]: binds |
| B3 | 1.2 | 0.15 | > 50 | 2.3 | 0.42 | > 50 | 2.4 | 2.3 | > 50 | 24 | 2 | > 50 | > 50 | > 50 | > 50 | > 50 | 0.15 | > 50 | > 50 | > 50 µg/mL | IC50 in TZM-bl cells [22]: > 50 µg/mL; IC50 in TZM-bl cells [23]: > 50 µg/mL; IC50 in TZM-bl cells [24]: > 50 µg/mL; IC50 in TZM-bl cells [25]: > 50 µg/mL; IC50 in TZM-bl cells [26]: > 50 µg/mL; IC50 in TZM-bl cells [27]: > 50 µg/mL; IC50 in TZM-bl cells [28]: 1.2 µg/mL; IC50 in TZM-bl cells [29]: > 50 µg/mL; binding result [30]: binds |
